Experimental data reported in PMC3697849.

Molecular target: trypsin-digested STING c-di-GMP binding domain (CBD) (human) (UniProt Q86WV6)
Test: SEC

- stoichiometry N: 2
Substance: trypsin-digested STING c-di-GMP binding domain (CBD) (from UniProt Q86WV6 139-379) (domain or fragment)
